The chains are these.
B1: complement C9 (natural protein)
chain: not shown
modifications: N-linked glycan (NAG) on Asn394
notes: One to three copies stand in sMAC, in two conformations; also called C9_(1); C9_(2); source: bought: Complement Technologies (as part of purified sMAC)
B2: clusterin (natural protein, human)
chain 1: DQTVSDNELQEMSNQGSKYVNKEIQNAVNGVKQIKTLIEKTNEERKTLLSNLEEAKKKKEDALNETRESETKLKELPGVCNETMMALWEECKPCLKQTCMKFYARVCRSGSGLVGRQLEEFLNQSSPFYFWMNGDRIDSLLENDRQQTHMLDVMQDHFSRASSIIDELFQDRFFTREPQDTYHYLPFSLPHRRPHFFFPKSRIVR
chain 2: SLMPFSPYEPLNFHAMFQPFLEMIHEAQQAMDIHFHSPAFQHPPTEFIREGDDDRTVCREIRHNSTGCLRMKDQCDKCREILSVDCSTNNPSQAKLRRELDESLQVAERLTRKYNELLKSYQWKMLNTSSLLEQLNEQFNWVSRLANLTQGEDQYYLRVTTVASHTSDSDVPSGVTEVVVKLFDSDPITVTVPVEVSRKNPKFMETVAEKALQEYRKKHREE
modifications: highly glycosylated | highly glycosylated
notes: Secreted clusterin, about 80 kDa; multiple copies in sMAC; Not modelled in the deposited structures; the clusterin core model (residues 40-124 and 256-427) is a prediction; also called apolipoprotein J; source: bought: Complement Technologies (as part of purified sMAC)

Common to all, as to conditions: both partners purified
Assay [1] concerns the target T1, complement C8 (C8α/C8β/C8γ) (human, UniProt P07357 31-584; P07358 55-591; P07360 21-202).
T1 construct: complement component C8 alpha chain, human; complement component C8 beta chain, human; complement component C8 gamma chain, human; Kept as one molecule; source: bought: Complement Technologies (as part of purified sMAC); copies: 1 + 1 + 1
The assay is described as follows: cryo-EM structure; purified sMAC (Complement Technologies) at 0.065 mg/ml in 120 mM NaCl, 10 mM Hepes pH7.4; 3D classes with 1, 2 or 3 C9; focused refinements after density subtraction.

For the assay “complement C9”, the target named is B1. Nature of the assay: cross-linking; XL-MS of purified sMAC (0.5 mg/ml) with 1 mM DSS or 15 mM DMTMM, 30 min at RT, triplicates; LC-MS/MS, pLink.
For assay [2], the target named is T1, complement C8 (C8α/C8β/C8γ). Described as above.

Several values for one entry are separate records, joined by “and”; a condition that tells them apart may be missing. Equal entries are not always repeated.

T1 sequence (P07357 31-584, chain 1 of 3): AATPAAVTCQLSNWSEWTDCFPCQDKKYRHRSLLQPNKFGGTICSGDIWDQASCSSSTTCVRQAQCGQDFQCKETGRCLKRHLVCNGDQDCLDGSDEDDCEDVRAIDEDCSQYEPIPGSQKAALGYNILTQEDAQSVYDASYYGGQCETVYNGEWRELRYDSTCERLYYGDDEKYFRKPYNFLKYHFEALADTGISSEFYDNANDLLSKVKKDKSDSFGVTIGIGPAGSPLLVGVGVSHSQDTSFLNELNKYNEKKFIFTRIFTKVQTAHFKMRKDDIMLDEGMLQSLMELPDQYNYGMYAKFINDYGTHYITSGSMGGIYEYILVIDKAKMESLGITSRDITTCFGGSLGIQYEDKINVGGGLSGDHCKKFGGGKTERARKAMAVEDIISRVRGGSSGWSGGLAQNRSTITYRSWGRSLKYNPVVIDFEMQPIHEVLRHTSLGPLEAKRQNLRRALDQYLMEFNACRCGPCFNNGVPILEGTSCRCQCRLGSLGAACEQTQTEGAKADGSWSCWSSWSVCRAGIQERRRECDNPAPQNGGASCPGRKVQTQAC
T1 sequence (P07358 55-591, chain 2 of 3): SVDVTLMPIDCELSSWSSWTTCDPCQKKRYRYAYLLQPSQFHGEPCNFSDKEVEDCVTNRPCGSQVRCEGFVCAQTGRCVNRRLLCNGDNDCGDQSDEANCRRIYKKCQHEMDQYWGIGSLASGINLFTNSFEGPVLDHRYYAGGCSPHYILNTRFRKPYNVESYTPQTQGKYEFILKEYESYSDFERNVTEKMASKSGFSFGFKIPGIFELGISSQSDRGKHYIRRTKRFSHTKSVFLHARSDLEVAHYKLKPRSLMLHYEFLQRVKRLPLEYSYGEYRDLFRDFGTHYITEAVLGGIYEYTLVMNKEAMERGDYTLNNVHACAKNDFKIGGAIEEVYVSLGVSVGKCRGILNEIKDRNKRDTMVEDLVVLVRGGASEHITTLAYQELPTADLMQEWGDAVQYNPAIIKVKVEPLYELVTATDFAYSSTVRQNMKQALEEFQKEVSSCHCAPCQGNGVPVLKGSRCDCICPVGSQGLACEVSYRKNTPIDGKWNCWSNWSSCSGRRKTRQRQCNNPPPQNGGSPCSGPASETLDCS
T1 sequence (P07360 21-202, chain 3 of 3): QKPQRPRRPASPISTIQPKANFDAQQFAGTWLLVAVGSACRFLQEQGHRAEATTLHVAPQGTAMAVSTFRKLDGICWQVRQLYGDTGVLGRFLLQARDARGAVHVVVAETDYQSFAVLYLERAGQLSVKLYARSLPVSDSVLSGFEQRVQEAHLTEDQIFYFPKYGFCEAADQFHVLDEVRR
Sequence of complement C9 (P02748 22-559): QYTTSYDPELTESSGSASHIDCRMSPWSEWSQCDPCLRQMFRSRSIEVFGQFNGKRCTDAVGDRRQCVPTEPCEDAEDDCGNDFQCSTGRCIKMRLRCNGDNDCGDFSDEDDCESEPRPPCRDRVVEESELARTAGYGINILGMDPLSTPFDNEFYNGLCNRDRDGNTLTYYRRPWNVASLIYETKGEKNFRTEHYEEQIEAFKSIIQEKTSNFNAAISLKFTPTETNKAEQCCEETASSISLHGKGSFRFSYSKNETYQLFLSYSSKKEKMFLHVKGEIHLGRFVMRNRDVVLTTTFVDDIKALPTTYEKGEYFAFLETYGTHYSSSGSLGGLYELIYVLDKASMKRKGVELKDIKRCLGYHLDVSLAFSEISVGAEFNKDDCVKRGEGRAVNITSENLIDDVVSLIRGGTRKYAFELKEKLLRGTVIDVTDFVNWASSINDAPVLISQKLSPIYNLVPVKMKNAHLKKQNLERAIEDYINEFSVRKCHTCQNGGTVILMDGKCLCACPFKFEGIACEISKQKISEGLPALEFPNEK

B1: the stoichiometry N (in general, the number of molecules, sites or subunits per partner or assembly) in assay [1] is 1 copies and 3 copies.
B2: the binding result (with complement C9; in assay [2]) was “binds” throughout.
